Values of other authors as cited in publication PMC11173308.

Target: calmodulin (UniProt P0DP23)

arrestin-2 (from UniProt P17870)
Kd: 7 µM
